Experiments:
tauΔ2-18 [1] = target: T1, tauΔ2-18 (UniProt P10636-8 1-441); assay: Western blot
T1 construct: Deletion of residues 2-18; also called tau that lacks 2-18 domain; recombinant tauΔ2-18

tauΔ2-18 [2] = target: T1, tauΔ2-18; assay: blot

T1 sequence (P10636 other isoform, or with tags, fused parts or gaps mutant limits assumed): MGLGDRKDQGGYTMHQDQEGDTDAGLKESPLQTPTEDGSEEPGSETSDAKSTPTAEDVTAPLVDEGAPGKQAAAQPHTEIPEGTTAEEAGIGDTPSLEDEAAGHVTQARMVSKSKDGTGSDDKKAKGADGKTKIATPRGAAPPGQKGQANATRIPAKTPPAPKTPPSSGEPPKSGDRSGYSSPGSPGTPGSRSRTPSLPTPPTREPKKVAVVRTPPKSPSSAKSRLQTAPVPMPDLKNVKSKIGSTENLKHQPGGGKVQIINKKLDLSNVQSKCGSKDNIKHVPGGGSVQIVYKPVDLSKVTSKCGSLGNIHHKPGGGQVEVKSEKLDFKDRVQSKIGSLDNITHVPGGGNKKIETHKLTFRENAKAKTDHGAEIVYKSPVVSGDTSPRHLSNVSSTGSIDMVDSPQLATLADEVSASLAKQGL

binding result (tauΔ2-18 [1]) | binding result (tauΔ2-18 [2]) | Binder
no binding |  | mouse monoclonal antibody 1C9 (antibody, V domains shown, also called 1C9 mAb; 1C9 moAb) VH: EVQLQQSGTVLARPGASVKMSCKTSGYTFTNHWMHWVKQRPGQGLEWIGAIDPGNSDTSYNQKFKGQAKLTAVTSASTAFMELSSLTNEDSAVYYCTRRDFFGGEYAVDYWGQGTSVTVSS VL: DVVMTQTPLSLPVSLGDQASISCRSSQSLVHSNGNTYLHWYLQKPGQSPKLLIYKVSNRFSGVPDRFSGSGSGTDFTLKISRVEAEDLGVYFCSQSTHVPWTFGGGTKLEIK
 | no binding | Armanezumab (antibody, V domains shown, Fully humanized IgG derived from 1C9; also called humanized 1C9) VH: QVQLVQSGAEVKKPGASVKVSCKASGYTFTNHWMHWVRQAPGQGLEWMGAIDPGNSDTSYNQKFKGRVTMTRDTSTSTVYMELSSLRSEDTAVYYCARRDFFGGEYAVDYWGQGTLVTVSS VL: DIVMTQSPLSLPVTPGEPASISCRSSQSLVHSNGNTYLHWYLQKPGQSPQLLIYKVSNRFSGVPDRFSGSGSGTDFTLKISRVEAEDVGVYYCSQSTHVPWTFGQGTKVEIKR

— US20190292245A1 (published 2019)
